The record followed here is publication PMC3173486.

Assay [1] addresses HA of A/HongKong/156/97 (H5N1, clade 0) (influenza A virus A/HongKong/156/97 (H5N1)) (UniProt O56140).
The target in assay [2] is HA of A/HongKong/156/97 (H5N1, clade 0) (influenza A virus A/HongKong/156/97 (H5N1)), O56140.
The target in assay [3] is HA of A/Indonesia/5/05 (H5N1, clade 2.1) (influenza A virus A/Indonesia/5/05 (H5N1)).
The target in assay [4] is HA of A/VietNam/1194/04 (H5N1, clade 1) (influenza A virus A/VietNam/1194/04 (H5N1)).

On to “RpSP-D trimers (from UniProt Q9N1X4 21-378) (natural protein)”, for which, in assay [1], the HI assay: minimal inhibitory concentration of RpSP-D trimers; failed to inhibit was above 4500 ng/100 µl.

B1: recombinant porcine SP-D, Q9N1X4 21-378 (natural protein)
chain: AEMKTYSQRAVANACALVMCSPMENGLPGRDGRDGREGPRGEKGDPGLPGAVGRAGMPGLAGPVGPKGDNGSTGEPGAKGDIGPCGPPGPPGIPGPAGKEGPSGQQGNIGPPGTPGPKGETGPKGEVGALGMQGSTGARGPAGLKGERGAPGERGAPGSAGAAGPAGATGPQGPSGARGPPGLKGDRGPPGERGAKGESGLPGITALRQQVETLQGQVQRLQKAFSQYKKVELFPNGRGVGEKIFKTGGFEKTFQDAQQVCTQAGGQMASPRSETENEALSQLVTAQNKAAFLSMTDIKTEGNFTYPTGEPLVYANWAPGEPNNNGGSSGAENCVEIFPNGKWNDKACGELRLVICEF
B1: the HI assay: concentration of RpSP-D required to prevent hemagglutination in assay [2] came out at 4500 ng/100 µl.

B2: RpSP-D multimers (natural protein)
chain: B1 chain
Molecule B2 showed an HI assay: minimal inhibitory concentration of RpSP-D multimers with HA of the H5N1 viruses of 1400 ng/100 µl.

B3: RpSP-D trimers (natural protein)
chain: B1 chain
On to B3, for which the HI assay: minimal inhibitory concentration of RpSP-D trimers; failed to inhibit in assay [3] and in assay [4] was above 4500 ng/100 µl throughout.
